Reference: IntAct's records for PubMed 23890821

B1: Protein Vpu (Human immunodeficiency virus type 1 group M subtype B (isolate HXB2) (HIV-1)), P05919 (parent)
chain: MQPIPIVAIVALVVAIIIAIVVWSIVIIEYRKILRQRKIDRLIDRLIERAEDSGNESEGEISALVEMGVEMGHHAPWDVDDL

Variants of: B1
Conditions: with cd4_human CD4, P01730

Row | Variant | effect of a mutation on the interaction
1 | I18F;V22F;V26L | decreasing interaction strength
